Target: recombinant full-length thrombospondin-1 (human) (UniProt P07996)
Assay: SPR

Chain of recombinant full-length thrombospondin-1 (human) (P07996 19-1170): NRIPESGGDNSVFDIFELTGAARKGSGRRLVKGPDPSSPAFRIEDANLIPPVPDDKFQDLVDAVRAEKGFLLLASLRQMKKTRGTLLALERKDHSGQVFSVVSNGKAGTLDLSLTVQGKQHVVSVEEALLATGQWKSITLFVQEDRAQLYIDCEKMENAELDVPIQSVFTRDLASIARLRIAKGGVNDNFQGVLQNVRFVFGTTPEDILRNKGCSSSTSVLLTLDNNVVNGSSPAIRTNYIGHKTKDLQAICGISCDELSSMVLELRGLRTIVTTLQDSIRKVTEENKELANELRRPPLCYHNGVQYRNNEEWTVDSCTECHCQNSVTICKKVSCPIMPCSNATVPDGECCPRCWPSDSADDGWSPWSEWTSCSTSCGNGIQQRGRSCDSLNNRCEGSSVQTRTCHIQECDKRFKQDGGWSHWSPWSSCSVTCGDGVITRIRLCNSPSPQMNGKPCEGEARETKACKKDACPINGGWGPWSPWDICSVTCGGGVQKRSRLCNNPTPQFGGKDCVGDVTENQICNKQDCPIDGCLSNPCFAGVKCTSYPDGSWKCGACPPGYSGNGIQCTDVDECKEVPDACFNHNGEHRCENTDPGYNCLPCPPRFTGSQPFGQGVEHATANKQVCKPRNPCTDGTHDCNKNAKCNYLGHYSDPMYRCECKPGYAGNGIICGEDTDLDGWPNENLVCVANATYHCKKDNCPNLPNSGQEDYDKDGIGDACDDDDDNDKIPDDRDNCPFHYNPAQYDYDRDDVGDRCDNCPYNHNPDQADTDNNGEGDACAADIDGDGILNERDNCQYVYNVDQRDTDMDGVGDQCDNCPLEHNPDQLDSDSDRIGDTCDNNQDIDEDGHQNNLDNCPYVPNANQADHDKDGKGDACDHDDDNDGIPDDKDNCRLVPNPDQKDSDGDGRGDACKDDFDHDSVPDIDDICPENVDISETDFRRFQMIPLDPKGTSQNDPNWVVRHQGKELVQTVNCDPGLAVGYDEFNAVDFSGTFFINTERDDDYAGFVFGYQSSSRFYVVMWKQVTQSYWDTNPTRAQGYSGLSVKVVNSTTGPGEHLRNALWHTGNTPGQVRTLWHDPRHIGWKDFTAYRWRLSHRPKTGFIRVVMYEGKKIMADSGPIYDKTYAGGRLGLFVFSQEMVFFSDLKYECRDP

Kd [nM]	Substance
127	complement C3 (natural protein)
47	complement C5 (natural protein)
